Target: Slx4-S486A^3Flag (budding yeast), Q12098
Test: affinity purification with mass spectrometry
Conditions: remark: other sources report otherwise

Sequence of Slx4-S486A^3Flag (budding yeast), Q12098 (Q12098 whole entry S486A): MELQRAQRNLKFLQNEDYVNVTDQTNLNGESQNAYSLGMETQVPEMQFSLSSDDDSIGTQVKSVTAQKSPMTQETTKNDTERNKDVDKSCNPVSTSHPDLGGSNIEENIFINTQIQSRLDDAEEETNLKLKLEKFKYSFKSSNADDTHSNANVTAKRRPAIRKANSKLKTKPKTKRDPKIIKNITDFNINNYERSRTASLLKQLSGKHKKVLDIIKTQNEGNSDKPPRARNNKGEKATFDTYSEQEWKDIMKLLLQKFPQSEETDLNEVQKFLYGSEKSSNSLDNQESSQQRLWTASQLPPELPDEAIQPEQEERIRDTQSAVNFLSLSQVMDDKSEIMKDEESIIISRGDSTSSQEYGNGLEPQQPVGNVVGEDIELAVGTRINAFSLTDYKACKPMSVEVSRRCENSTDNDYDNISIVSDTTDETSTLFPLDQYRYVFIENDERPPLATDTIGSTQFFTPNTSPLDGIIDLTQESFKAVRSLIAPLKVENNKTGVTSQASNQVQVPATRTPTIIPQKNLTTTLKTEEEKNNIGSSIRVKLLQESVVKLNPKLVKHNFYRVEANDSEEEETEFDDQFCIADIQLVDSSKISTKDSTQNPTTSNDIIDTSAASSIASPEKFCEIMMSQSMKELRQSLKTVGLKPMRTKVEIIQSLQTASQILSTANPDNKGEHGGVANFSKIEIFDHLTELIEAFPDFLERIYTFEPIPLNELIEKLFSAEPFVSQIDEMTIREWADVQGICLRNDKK

fold reduction of binding against wild-type Slx4^3Flag: 8 fold
B1: Dpb11, endogenous, P47027 1-764 (natural protein)
chain: MKPFQGITFCPTAINNEILAKKISKKIIKLGGIFSKDLTRQVNVLVVGSTTNTNKFKFAVKHRFDIIFIDIQAIDDIYQLWLSGENILPDSNTATMTGSTYEMLKILYRRFSFKYLHNFNIFIGRITDTNITSIDSLVRSIKKLGCSSYNYQNFVIKDTSSHNDDDDQGQNGQISIFVTDTLLGARVNAAIEQNIPIVHFKWILDCQKRSALLPYDPYYLLPNIKDLPYDSIGSNSCDCWDKINTTFPTNIDAQSSLQRQQSSSTLTPSLPKTSSLLNKFKPKGEKIWDKAMSLQQHSKTNFSVLGQSPLSINNKQEDLSDNSTLIFKNCAFIIHHIFPGNHRSILTKIVVQNGGKIETSYLSGIYDHSYYIIPSNKALDSFNDLPEIIDDNDGIVTEFFIERCLYYQKLLHPIDLWSKPFLSTIEFQVSSSSKLLHHEFSSSPFLNVTITGFSGVELLHLTKVLNLLKPMGINYVEYLNKSTDILLINLAALPSIPKTHPLWSNEFSDLFTQFCINNNNDDPGDNNRKDFQNNSILRNSMKRKIEYIKKFHSIPVVTPAFIFKLLSAASGENNEIFLNNIKWCIICPRGHKDDFKCKIKKPYYTSISSEKKYQNNDPKIDKTILLKRNNSSLSEHSMKDTKNELLQKIRETDSGRKKRSVSSSIMDVSSERQMPDTKRIKLESLPKNFVPKQIKRTTSWGTIMSENVPTEQPTAISNPEEIPRTEEVSHTQVTYGSIQDKKRTASLEKPMRRQTRNQTKELDS

From PMC4102767
